Measurements reported in the supplement of paper PMC5998384.

Assays:
HeLa Kyoto [1] = experiment: thermal stability score vs G1/S (z-score of summed log2 fold changes over temperatures); higher = more thermally stable than in G1/S
HeLa Kyoto [2] = experiment: solubility change mitosis vs G1/S (difference of NP-40 vs SDS log2 ratios) (log2 ratio difference); higher = more soluble in mitosis
HeLa Kyoto [3] = experiment: solubility in G1/S (NP-40 vs SDS abundance) (log2 ratio); higher = more soluble; conditions: cell cycle stage: G1/S
HeLa Kyoto [4] = experiment: melting temperature (median over replicates), in situ; higher = more thermally stable
[5] = cell cycle stage: early G1 (4.5 h after nocodazole release)
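For melting temperature (median over replicates), in situ in this document: HeLa Kyoto cells synchronized by double thymidine or nocodazole block, proteins quantified by TMT10plex mass spectrometry, three independent biological replicates.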
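For solubility change mitosis vs G1/S (difference of NP-40 vs SDS log2 ratios) in this document: synchronized HeLa Kyoto cells (double thymidine block for G1/S, nocodazole release for mitosis), protein amounts in NP-40 versus SDS lysates quantified by mass spectrometry, three biological replicates.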
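For solubility in G1/S (NP-40 vs SDS abundance) in this document: HeLa Kyoto cells arrested at G1/S by double thymidine block, proteins quantified by TMT10plex mass spectrometry in mild NP-40 versus SDS extracts, three biological replicates.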
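For thermal stability score vs G1/S (z-score of summed log2 fold changes over temperatures) in this document: synchronized HeLa Kyoto cells, proteins quantified by TMT10plex mass spectrometry, three biological replicates, mitosis taken 0.5 h after nocodazole release, G1/S directly after double thymidine block.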

Sequence	thermal stability score (HeLa Kyoto [1]; [5])	thermal stability score (HeLa Kyoto [1]; cell cycle stage: mitosis)	solubility change mitosis (log2) (HeLa Kyoto [2])	solubility in G1/S (log2) (HeLa Kyoto [3])	melting temperature (HeLa Kyoto [4]; cell cycle stage: G1/S) [°C]	melting temperature (HeLa Kyoto [4]; cell cycle stage: mitosis) [°C]
MALTSFLPAPTQLSQDQLEAEEKARSQRSRQTSLVSSRREPPPYGYRKGWIPRLLEDFGDGGAFPEIHVAQYPLDMGRKKKMSNALAIQVDSEGKIKYDAIARQGQSKDKVIYSKYTDLVPKEVMNADDPDLQRPDEEAIKEITEKTRVALEKSVSQKVAAAMPVRAADKLAPAQYIRYTPSQQGVAFNSGAKQRVIRMVEMQKDPMEPPRFKINKKIPRGPPSPPAPVMHSPSRKMTVKEQQEWKIPPCISNWKNAKGYTIPLDKRLAADGRGLQTVHINENFAKLAEALYIADRKAREAVEMRAQVERKMAQKEKEKHEEKLREMAQKARERRAGIKTHVEKEDGEARERDEIRHDRRKERQHDRNLSRAAPDKRSKLQRNENRDISEVIALGVPNPRTSNEVQYDQRLFNQSKGMDSGFAGGEDEIYNVYDQAWRGGKDMAQSIYRPSKNLDKDMYGDDLEARIKTNRFVPDKEFSGSDRRQRGREGPVQFEEDPFGLDKFLEEAKQHGGSKRPSDSSRPKEHEHEGKKRRKE [SNW1]	0.202	-3.38	0.482	-0.328	52.3	50.8
MALVASVRVPARVLLRAGARLPGAALGRTERAAGGGDGARRFGSQRVLVEPDAGAGVAVMKFKNPPVNSLSLEFLTELVISLEKLENDKSFRGVILTSDRPGVFSAGLDLTEMCGRSPAHYAGYWKAVQELWLRLYQSNLVLVSAINGACPAGGCLVALTCDYRILADNPRYCIGLNETQLGIIAPFWLKDTLENTIGHRAAERALQLGLLFPPAEALQVGIVDQVVPEEQVQSTALSAIAQWMAIPDHARQLTKAMMRKATASRLVTQRDADVQNFVSFISKDSIQKSLQMYLERLKEEKG [ECI1]	-0.579	-2.1	0.043	0.58	56.8	58.4
MALVHKLLRGTYFLRKFSKPTSALYPFLGIRFAEYSSSLQKPVASPGKASSQRKTEGDLQGDHQKEVALDITSSEEKPDVSFDKAIRDEAIYHFRLLKDEIVDHWRGPEGHPLHEVLLEQAKVVWQFRGKEDLDKWTVTSDKTIGGRSEVFLKMGKNNQSALLYGTLSSEAPQDGESTRSGYCAMISRIPRGAFERKMSYDWSQFNTLYLRVRGDGRPWMVNIKEDTDFFQRTNQMYSYFMFTRGGPYWQEVKIPFSKFFFSNRGRIRDVQHELPLDKISSIGFTLADKVDGPFFLEIDFIGVFTDPAHTEEFAYENSPELNPRLFK [NDUFAF1]	4.31	3.52	-0.0281	0.043	54.6	55.2
MAMAEGERTECAEPPRDEPPADGALKRAEELKTQANDYFKAKDYENAIKFYSQAIELNPSNAIYYGNRSLAYLRTECYGYALGDATRAIELDKKYIKGYYRRAASNMALGKFRAALRDYETVVKVKPHDKDAKMKYQECNKIVKQKAFERAIAGDEHKRSVVDSLDIESMTIEDEYSGPKLEDGKVTISFMKELMQWYKDQKKLHRKCAYQILVQVKEVLSKLSTLVETTLKETEKITVCGDTHGQFYDLLNIFELNGLPSETNPYIFNGDFVDRGSFSVEVILTLFGFKLLYPDHFHLLRGNHETDNMNQIYGFEGEVKAKYTAQMYELFSEVFEWLPLAQCINGKVLIMHGGLFSEDGVTLDDIRKIERNRQPPDSGPMCDLLWSDPQPQNGRSISKRGVSCQFGPDVTKAFLEENNLDYIIRSHEVKAEGYEVAHGGRCVTVFSAPNYCDQMGNKASYIHLQGSDLRPQFHQFTAVPHPNVKPMAYANTLLQLGMM [PPP5C]	-0.0521	-1.42	-0.207	0.0833	52.2	51.6
MAMDSSLQARLFPGLAIKIQRSNGLIHSANVRTVNLEKSCVSVEWAEGGATKGKEIDFDDVAAINPELLQLLPLHPKDNLPLQENVTIQKQKRRSVNSKIPAPKESLRSRSTRMSTVSELRITAQENDMEVELPAAANSRKQFSVPPAPTRPSCPAVAEIPLRMVSEEMEEQVHSIRGSSSANPVNSVRRKSCLVKEVEKMKNKREEKKAQNSEMRMKRAQEYDSSFPNWEFARMIKEFRATLECHPLTMTDPIEEHRICVCVRKRPLNKQELAKKEIDVISIPSKCLLLVHEPKLKVDLTKYLENQAFCFDFAFDETASNEVVYRFTARPLVQTIFEGGKATCFAYGQTGSGKTHTMGGDLSGKAQNASKGIYAMASRDVFLLKNQPCYRKLGLEVYVTFFEIYNGKLFDLLNKKAKLRVLEDGKQQVQVVGLQEHLVNSADDVIKMIDMGSACRTSGQTFANSNSSRSHACFQIILRAKGRMHGKFSLVDLAGNERGADTSSADRQTRMEGAEINKSLLALKECIRALGQNKAHTPFRESKLTQVLRDSFIGENSRTCMIATISPGISSCEYTLNTLRYADRVKELSPHSGPSGEQLIQMETEEMEACSNGALIPGNLSKEEEELSSQMSSFNEAMTQIRELEEKAMEELKEIIQQGPDWLELSEMTEQPDYDLETFVNKAESALAQQAKHFSALRDVIKALRLAMQLEEQASRQISSKKRPQ [KIF2C]	2.01	3.27	-0.0369	-0.0225	48.6	49.5
MAMMVFPREEKLSQDEIVLGTKAVIQGLETLRGEHRALLAPLVAPEAGEAEPGSQERCILLRRSLEAIELGLGEAQVILALSSHLGAVESEKQKLRAQVRRLVQENQWLREELAGTQQKLQRSEQAVAQLEEEKQHLLFMSQIRKLDEDASPNEEKGDVPKDTLDDLFPNEDEQSPAPSPGGGDVSGQHGGYEIPARLRTLHNLVIQYASQGRYEVAVPLCKQALEDLEKTSGHDHPDVATMLNILALVYRDQNKYKEAAHLLNDALAIREKTLGKDHPAVAATLNNLAVLYGKRGKYKEAEPLCKRALEIREKVLGKFHPDVAKQLSNLALLCQNQGKAEEVEYYYRRALEIYATRLGPDDPNVAKTKNNLASCYLKQGKYQDAETLYKEILTRAHEKEFGSVNGDNKPIWMHAEEREESKDKRRDSAPYGEYGSWYKACKVDSPTVNTTLRSLGALYRRQGKLEAAHTLEDCASRNRKQGLDPASQTKVVELLKDGSGRRGDRRSSRDMAGGAGPRSESDLEDVGPTAEWNGDGSGSLRRSGSFGKLRDALRRSSEMLVKKLQGGTPQEPPNPRMKRASSLNFLNKSVEEPTQPGGTGLSDSRTLSSSSMDLSRRSSLVG [KLC2]	0.627	1.01	0.0405	0.526	50	50.1
MAMNYNAKDEVDGGPPCAPGGTAKTRRPDNTAFKQQRLPAWQPILTAGTVLPIFFIIGLIFIPIGIGIFVTSNNIREIEIDYTGTEPSSPCNKCLSPDVTPCFCTINFTLEKSFEGNVFMYYGLSNFYQNHRRYVKSRDDSQLNGDSSALLNPSKECEPYRRNEDKPIAPCGAIANSMFNDTLELFLIGNDSYPIPIALKKKGIAWWTDKNVKFRNPPGGDNLEERFKGTTKPVNWLKPVYMLDSDPDNNGFINEDFIVWMRTAALPTFRKLYRLIERKSDLHPTLPAGRYSLNVTYNYPVHYFDGRKRMILSTISWMGGKNPFLGIAYIAVGSISFLLGVVLLVINHKYRNSSNTADITI [TMEM30A]	-0.78	0.594	-0.17	0.428	54.2	54.6
MANINLKEITLIVGVVTACYWNSLFCGFVFDDVSAILDNKDLHPSTPLKTLFQNDFWGTPMSEERSHKSYRPLTVLTFRLNYLLSELKPMSYHLLNMIFHAVVSVIFLKVCKLFLDNKSSVIASLLFAVHPIHTEAVTGVVGRAELLSSIFFLAAFLSYTRSKGPDNSIIWTPIALTVFLVAVATLCKEQGITVVGICCVYEVFIAQGYTLPLLCTTAGQFLRGKGSIPFSMLQTLVKLIVLMFSTLLLVVIRVQVIQSQLPVFTRFDNPAAVSPTPTRQLTFNYLLPVNAWLLLNPSELCCDWTMGTIPLIESLLDIRNLATFTFFCFLGMLGVFSIRYSGDSSKTVLMALCLMALPFIPASNLFFPVGFVVAERVLYVPSMGFCILVAHGWQKISTKSVFKKLSWICLSMVILTHSLKTFHRNWDWESEYTLFMSALKVNKNNAKLWNNVGHALENEKNFERALKYFLQATHVQPDDIGAHMNVGRTYKNLNRTKEAEESYMMAKSLMPQIIPGKKYAARIAPNHLNVYINLANLIRANESRLEEADQLYRQAISMRPDFKQAYISRGELLLKMNKPLKAKEAYLKALELDRNNADLWYNLAIVHIELKEPNEALKKNFNRALELNPKHKLALFNSAIVMQESGEVKLRPEARKRLLSYINEEPLDANGYFNLGMLAMDDKKDNEAEIWMKKAIKLQADFRSALFNLALLYSQTAKELKALPILEELLRYYPDHIKGLILKGDILMNQKKDILGAKKCFERILEMDPSNVQGKHNLCVVYFEEKDLLKAERCLLETLALAPHEEYIQRHLNIVRDKISSSSFIEPIFPTSKISSVEGKKIPTESVKEIRGESRQTQIVKTSDNKSQSKSNKQLGKNGDEETPHKTTKDIKEIEKKRVAALKRLEEIERILNGE [TMTC3]	0.0389	0.555	-0.0802	-0.0354	52.9	53.1
